We go through one substance from patent publication US20240229003A1.

This experiment concerns the target LGR6 (UniProt Q9HBX8). The experiment can be described thus: cell-based or functional assay.
Sequence of UniProt Q9HBX8 (Q9HBX8 25-967): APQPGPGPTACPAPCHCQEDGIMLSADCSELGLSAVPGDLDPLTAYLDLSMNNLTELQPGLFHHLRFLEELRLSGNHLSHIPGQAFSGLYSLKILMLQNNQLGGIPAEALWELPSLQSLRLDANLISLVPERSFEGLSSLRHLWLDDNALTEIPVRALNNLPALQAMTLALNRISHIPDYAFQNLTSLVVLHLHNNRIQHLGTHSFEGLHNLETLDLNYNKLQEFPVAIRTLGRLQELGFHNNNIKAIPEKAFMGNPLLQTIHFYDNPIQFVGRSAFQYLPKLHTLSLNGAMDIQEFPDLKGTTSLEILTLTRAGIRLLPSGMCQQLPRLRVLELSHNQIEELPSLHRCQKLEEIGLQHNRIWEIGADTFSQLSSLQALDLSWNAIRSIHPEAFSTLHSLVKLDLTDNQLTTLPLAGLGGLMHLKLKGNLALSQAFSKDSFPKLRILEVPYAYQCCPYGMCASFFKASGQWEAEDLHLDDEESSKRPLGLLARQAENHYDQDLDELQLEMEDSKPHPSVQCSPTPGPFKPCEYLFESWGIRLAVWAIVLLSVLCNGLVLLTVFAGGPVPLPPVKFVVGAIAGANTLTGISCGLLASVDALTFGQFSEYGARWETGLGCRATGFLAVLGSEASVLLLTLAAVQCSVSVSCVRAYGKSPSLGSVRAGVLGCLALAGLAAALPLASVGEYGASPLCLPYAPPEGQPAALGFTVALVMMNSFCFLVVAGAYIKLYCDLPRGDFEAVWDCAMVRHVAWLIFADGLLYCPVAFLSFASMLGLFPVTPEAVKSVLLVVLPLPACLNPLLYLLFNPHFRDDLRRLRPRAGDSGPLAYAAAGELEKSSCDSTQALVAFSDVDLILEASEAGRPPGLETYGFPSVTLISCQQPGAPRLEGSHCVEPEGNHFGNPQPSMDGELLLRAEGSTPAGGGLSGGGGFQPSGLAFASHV

On to “MBP-RSPO1-MMAE (from UniProt Q2MKA7 21-145)”, for which the IC50 of cell killing on LGR6-overexpressing HEK-LGR6-2 cells (10 days exposure, CCK-8 viability) came out at 0.08 nM and the fold potency of killing, HEK-LGR6-2 cells against empty vector-transfected HEK-pcDNA cells amounted to 12 fold.
